Reference: publication PMC10786891, “Massively parallel profiling of RNA-targeting CRISPR-Cas13d”
Substitutions are numbered along the chain they refer to. In names and notes the source's numbering stands.

T1: EsCas13d, nuclease-dead (Eubacterium siraeum, UniProt B0MS50, R295A;H300A;R849A;H854A)
T1 sequence: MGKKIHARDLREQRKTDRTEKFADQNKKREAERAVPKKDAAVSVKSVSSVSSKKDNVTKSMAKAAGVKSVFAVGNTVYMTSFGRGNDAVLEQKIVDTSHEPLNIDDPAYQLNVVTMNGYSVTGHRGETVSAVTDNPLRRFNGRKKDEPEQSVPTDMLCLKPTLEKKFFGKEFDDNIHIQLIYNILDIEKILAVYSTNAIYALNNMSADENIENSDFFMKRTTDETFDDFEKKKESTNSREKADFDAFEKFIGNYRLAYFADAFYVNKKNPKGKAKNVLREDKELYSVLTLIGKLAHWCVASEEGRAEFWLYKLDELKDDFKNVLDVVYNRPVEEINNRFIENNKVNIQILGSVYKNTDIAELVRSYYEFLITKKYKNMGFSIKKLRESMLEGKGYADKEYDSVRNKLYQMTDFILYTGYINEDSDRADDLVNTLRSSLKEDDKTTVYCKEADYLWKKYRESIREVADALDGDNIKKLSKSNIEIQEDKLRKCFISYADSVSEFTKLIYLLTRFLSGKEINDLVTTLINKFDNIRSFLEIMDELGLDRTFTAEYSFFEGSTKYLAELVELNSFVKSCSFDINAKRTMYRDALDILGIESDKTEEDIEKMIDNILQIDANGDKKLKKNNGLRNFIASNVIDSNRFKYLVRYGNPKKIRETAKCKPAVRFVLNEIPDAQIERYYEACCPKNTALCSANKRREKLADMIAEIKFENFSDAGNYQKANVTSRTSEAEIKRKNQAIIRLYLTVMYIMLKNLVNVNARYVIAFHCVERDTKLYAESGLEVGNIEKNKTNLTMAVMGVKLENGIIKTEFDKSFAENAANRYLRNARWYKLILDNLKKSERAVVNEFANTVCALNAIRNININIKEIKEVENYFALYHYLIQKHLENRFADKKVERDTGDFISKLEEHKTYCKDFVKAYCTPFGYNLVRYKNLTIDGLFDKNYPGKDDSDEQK

B1: target 1 insC 3' of 10,insU 3' of 9 (mixed)
RNA 1: CACCCGUGCAAAAAUGCAGGGGUCUAAAACUGAGCGGAUAACCUCUCUAUGG
RNA 2: GGGAAUGGAUCCACAUCUACGAAUUCGUACCAUAGAGAGGUUCAUUCCGCUCACCGAGAUCGGAAGAGCACACGU
B2: target 1 del17 (mixed)
RNA 1: B1 RNA 1
RNA 2: GGGAAUGGAUCCACAUCUACGAAUUCGUACCAUAAGAGGUUAUCCGCUCACCGAGAUCGGAAGAGCACACGU
B3: target 1 C6A,U11C (mixed)
RNA 1: B1 RNA 1
RNA 2: GGGAAUGGAUCCACAUCUACGAAUUCGUACCAUAGAGAGGCUAUCAGCUCACCGAGAUCGGAAGAGCACACGU
B4: target 1 A1G,C21U (mixed)
RNA 1: B1 RNA 1
RNA 2: B3 RNA 2 with C31U, C41U, A46C, A51G
B5: target 1 insC 3' of 22,insU 3' of 20 (mixed)
RNA 1: B1 RNA 1
RNA 2: GGGAAUGGAUCCACAUCUACGAAUUCGUACCCAUUAGAGAGGUUAUCCGCUCACCGAGAUCGGAAGAGCACACGU
B6: target 1 A1C,C21U (mixed)
RNA 1: B1 RNA 1
RNA 2: B3 RNA 2 with C31U, C41U, A46C, A51C
B7: target 1 C21U (mixed)
RNA 1: B1 RNA 1
RNA 2: B3 RNA 2 with C31U, C41U, A46C
B8: target 1 U3G,G12U (mixed)
RNA 1: B1 RNA 1
RNA 2: B3 RNA 2 with G40U, C41U, A46C, U49G
B9: target 1 insC 3' of 20,insC 3' of 10 (mixed)
RNA 1: B1 RNA 1
RNA 2: GGGAAUGGAUCCACAUCUACGAAUUCGUACCACUAGAGAGGUUCAUCCGCUCACCGAGAUCGGAAGAGCACACGU
B10: target 1 del19,del20 (mixed)
RNA 1: B1 RNA 1
RNA 2: GGGAAUGGAUCCACAUCUACGAAUUCGUACCAGAGAGGUUAUCCGCUCACCGAGAUCGGAAGAGCACACGU
B11: target 1 C2A,G13A (mixed)
RNA 1: B1 RNA 1
RNA 2: B3 RNA 2 with G39A, C41U, A46C, C50A
B12: target 1 insC 3' of 8,insA 3' of 3 (mixed)
RNA 1: B1 RNA 1
RNA 2: B1 RNA 2 with C43A, A44U, U45C, U46C, C48G, G49C, C50U, U51A
B13: target 1 insC 3' of 14,insG 3' of 9 (mixed)
RNA 1: B1 RNA 1
RNA 2: B1 RNA 2 with G39C, U41G, C43U, U45G
B14: target 1 U8G,C22A (mixed)
RNA 1: B1 RNA 1
RNA 2: B3 RNA 2 with C30A, C41U, U44G, A46C
B15: target 1 insA 3' of 11,insC 3' of 9 (mixed)
RNA 1: B1 RNA 1
RNA 2: B1 RNA 2 with U42A, C43U, U45C
B16: target 1 complement block 6-14 (mixed)
RNA 1: B1 RNA 1
RNA 2: B3 RNA 2 with A38U, G39C, G40C, C41A, U42A, A43U, U44A, C45G, A46G
B17: target 1 insU 3' of 9,insG 3' of 4 (mixed)
RNA 1: B1 RNA 1
RNA 2: B1 RNA 2 with C43A, A44U, U46C, C48G, G49C, C50G
B18: target 1 C2A,G15C (mixed)
RNA 1: B1 RNA 1
RNA 2: B3 RNA 2 with G37C, C41U, A46C, C50A
B19: target 1 insG 3' of 22,insG 3' of 7 (mixed)
RNA 1: B1 RNA 1
RNA 2: B9 RNA 2 with C31G, A32C, C33A, C44A, A45U, U46C, C47G
B20: target 1 del13,del20 (mixed)
RNA 1: B1 RNA 1
RNA 2: B10 RNA 2 with A32U, G33A, A34G, G35A, A36G, G37A
B21: target 1 A1C,G17U (mixed)
RNA 1: B1 RNA 1
RNA 2: B3 RNA 2 with G35U, C41U, A46C, A51C
B22: target 1 insC 3' of 15,insG 3' of 3 (mixed)
RNA 1: B1 RNA 1
RNA 2: B1 RNA 2 with A38C, G39A, U41G, C43U, U46C, C48G, G49C, C50U, U51G
B23: target 1 insA 3' of 6,insG 3' of 6 (mixed)
RNA 1: B1 RNA 1
RNA 2: B1 RNA 2 with C43A, A44U, U45C, U46C, C47A, C48G
B24: target 1 insC 3' of 14,insA 3' of 3 (mixed)
RNA 1: B1 RNA 1
RNA 2: B1 RNA 2 with G39C, U41G, C43U, U46C, C48G, G49C, C50U, U51A
B25: target 1 C4U,U10A (mixed)
RNA 1: B1 RNA 1
RNA 2: B3 RNA 2 with C41U, U42A, A46C, C48U
B26: target 1 C2G,G12C (mixed)
RNA 1: B1 RNA 1
RNA 2: B3 RNA 2 with G40C, C41U, A46C, C50G
B27: target 1 A1C,A9U (mixed)
RNA 1: B1 RNA 1
RNA 2: B3 RNA 2 with C41U, A43U, A46C, A51C
B28: target 1 insA 3' of 5,insA 3' of 3 (mixed)
RNA 1: B1 RNA 1
RNA 2: B1 RNA 2 with C43A, A44U, U45C, U46C, C47G, C48A, G49C, C50U, U51A
B29: target 1 A9G,A14C (mixed)
RNA 1: B1 RNA 1
RNA 2: B3 RNA 2 with A38C, C41U, A43G, A46C
B30: target 1 del19,del22 (mixed)
RNA 1: B1 RNA 1
RNA 2: B10 RNA 2 with C31A
B31: target 1 C2U,U10G (mixed)
RNA 1: B1 RNA 1
RNA 2: B3 RNA 2 with C41U, U42G, A46C, C50U
B32: target 1 insG 3' of 18,insG 3' of 7 (mixed)
RNA 1: B1 RNA 1
RNA 2: B9 RNA 2 with C33U, U34A, A35G, C44A, A45U, U46C, C47G
B33: target 1 insU 3' of 15,insU 3' of 14 (mixed)
RNA 1: B1 RNA 1
RNA 2: B5 RNA 2 with C32A, A33U, U34A, U35G, A38U, G39A, A40U

Biological target: T1, EsCas13d, nuclease-dead
Experiment: crRNA (strand 1, pre-loaded); Mg2+; 40 mM Tris-HCl pH 7.5, 150 mM NaCl, 6 mM MgCl2, 1 mM DTT, 0.1% Tween-20, 0.2 mg/ml BSA; 25 C; 10 min per concentration, then washed
Details: tags: His6-TwinStrep-SUMO cleaved; N-terminal SNAP kept (SNAP-Surface 488); label: 3' end held by stalled T7 RNA polymerase

Binder	Kd [nM]
B1	66 ± 27
B2	22.6 ± 1.6
B3	8.6 ± 0.7
B4	6.38 ± 0.24
B5	18.3 ± 2.7
B6	13 ± 4
B7	6.47 ± 0.24
B8	8.5 ± 0.4
B9	8.7 ± 0.6
B10	32.4 ± 3.4
B11	5.06 ± 0.27
B12	11.8 ± 0.7
B13	38 ± 9
B14	27.6 ± 3
B15	15.3 ± 0.8
B16	69 ± 27
B17	13.6 ± 2.1

Binder	Kd [nM]
B18	40 ± 4
B19	18.1 ± 1.1
B20	56 ± 8
B21	34 ± 9
B22	9.32 ± 0.33
B23	32 ± 5
B24	24.8 ± 1.9
B25	47 ± 15
B26	8.4 ± 0.8
B27	20 ± 5
B28	6.8 ± 0.6
B29	46 ± 6
B30	56 ± 16
B31	23.6 ± 1.7
B32	34.9 ± 3
B33	53 ± 4
